Entries after “also recorded” stand apart in the source; their conditions may differ.
Columns and labels:
[1] = tested on: LEC-5 and NEO fibroblast cell lines; test: Growth of fibroblasts with P4 treated cell supernatant; format: cell-based; settings: supernatant of P4 treated cells with higher FGFbasic, different concentrations
Description: 2 fibroblast cell lines, LEC-5 and NEO, were used. These cells were grown in a 96 well titer plates until they become confluent (˜6 days). To this, the P4 treated cell supernatant that had higher concentration of FGFbasic was added at different concentrations and the growth was monitored fluormetrically with the help of a fluorometric metabolic indicator.

P4 beads [2] = target: T1, P4 beads (Streptococcus pneumoniae serotype 4, UniProt P0A4G2, D258K/D259R); test: Mouse immunization: serum % IA of P4 beads (anti P4 activity); format: in vivo; settings: sera 1:32 dilution
T1 sequence (P0A4G2 251-278 D258K/D259R): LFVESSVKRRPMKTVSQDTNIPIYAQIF
Description: (§1) Serum inhibition of adherence assays were performed as previously described for the inhibition of pneumococcal adherence (Romero-Steiner). Two buffer solutions were found suitable for this type of assay: solution 1 (EMEM medium—Hanks buffered saline with Ca++ and Mg++ supplemented with 0.2% BSA) as previously reported (Romero-Steiner) or solution 2 (PBS 10 mM, pH7.2-7.4 supplemented with 1% BSA and 0.5% BSA for washes) as described below. Use of one buffer solution in preference to the other depended on availability of BSA (Sigma cat #A2153). Alternative preparations of BSA were evaluated but were not found suitable for this assay due to toxicity to the cell monolayer. Briefly, confluent monolayers of Detroit 562 cells were washed once with 130 μl/well of PBS buffer+0.5% BSA. A 45 μl volume of PBS buffer+1% BSA was added to each well and the plate was incubated while preparing serum dilutions in a replicate plate (U-bottom Costar). Serum dilutions in the replica plate could be performed in a 2-fold or 3-fold dilution scheme. For the 2-fold dilution scheme, a 10 μl volume of test or control serum was added to the first row of wells (B2-B11) already containing 70 μl of PBS+1% BSA. A 40 μl volume of PBS+1% BSA was added to the remainder of the wells including the outer perimeter. The sera from row B was serially diluted into rows C-F with a multichannel pipetor set at 40 μl (2-fold). The last 401 was discarded into the waste. Serum was not added to the adherence control wells (row G or column 11). A 20 μl volume of the optimal fluosphere dilution (usually 1:100 or 1:150, containing ˜3,100 fluospheres) was added to each well, including serum-free controls. The fluosphere suspension was sonicated for 3 minutes prior to addition to the center of the wells to generate a single fluosphere suspension. The microtiter plate was mixed by tapping the sides gently and incubated for 15 minutes at 37° C., 5% CO2. At the end of the incubation period, 55 μl/well was replica plated into the microtiter plate containing the washed monolayers containing 45 μl of PBS+1% BSA. The final well volume was always adjusted to 100-μl volume regardless of the serum dilution scheme used (2-fold or 3-fold) to control the reproducibility of fluosphere adherence The plate was mixed by tapping the sides gently and incubated for 2 hours at 37° C., 5% CO2. Following incubation, plates were washed 5 times with 130 μl/well of PBS+0.5% BSA. The plates were allowed to dry before reading in a fluorometer (BioTek, FLX 800) at 485 nm for excitation and emission at 520 nm. The percent inhibition of adherence (IA) was calculated as compared to adherence controls. The following formula was used: % IA=100-(test well FU×100)/controls mean FU.

P4 beads [3] = target: T2, P4 beads (Streptococcus pneumoniae serotype 4, UniProt P0A4G2); test: as above; format: in vivo
T2 sequence (P0A4G2 251-278 D258K/D259R): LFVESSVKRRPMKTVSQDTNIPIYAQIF
Description: as §1

[4] = tested on: HL-60, RAW 264.7 and Detroit 562 cells; test: P4 activation of phagocytes and epithelial cells (cytokine release, TEM); format: cell-based
Description: Cell suspensions of HL-60 (promyelocytes) and RAW 264.7 (monocytes), and Detroit 562 cells (nasopharyngeal epithelial cells) were centrifuged at 1000 rpm-10 min and the pellet was resuspended in 1 ml PBS buffer. To this, P4 solution (1 mg/ml) was added at 10% (v/v) concentration, mixed by inverting few times and incubated at 37° C., 5% CO2 for 15 min (HL-60 and RAW) or 30 min (Detroit 562). After incubation, the cells were centrifuged again and the supernatant was analyzed for cytokines and the cell pellet was washed once in PBS, fixed in 2% glutaraldehyde and processed for transmission electron microscopic (TEM) analysis.

PsaA beads = target: T3, PsaA beads (Streptococcus pneumoniae serotype 4, UniProt P0A4G2); test: Mouse immunization: serum % IA of PsaA beads (anti PsaA activity); format: in vivo
T3 construct: Both, rPsaA (MW 34,079 daltons) and the synthetic peptides were non-lipidated; purchased Aventis-Pasteur, Toronto, Ontario, Canada (donated)
T3 sequence (P0A4G2 20-309): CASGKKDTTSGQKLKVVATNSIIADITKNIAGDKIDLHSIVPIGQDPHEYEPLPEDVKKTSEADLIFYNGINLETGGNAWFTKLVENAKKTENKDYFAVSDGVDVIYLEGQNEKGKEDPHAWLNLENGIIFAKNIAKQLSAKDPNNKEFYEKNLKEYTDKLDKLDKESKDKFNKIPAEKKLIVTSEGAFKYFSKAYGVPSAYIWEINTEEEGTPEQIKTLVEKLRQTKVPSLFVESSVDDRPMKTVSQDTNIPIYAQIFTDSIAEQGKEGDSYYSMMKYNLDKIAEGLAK
Description: as §1

[5] = mice serum dilution factor 8, 7th day
[6] = mice serum dilution factor 8, 11th day
[7] = mice serum dilution factor 16, 7th day
[8] = mice serum dilution factor 16, 11th day
[9] = mice serum dilution factor 32, 7th day
[10] = mice serum dilution factor 32, 11th day
[11] = mice serum dilution factor 64, 7th day
[12] = mice serum dilution factor 64, 11th day
[13] = mice serum dilution factor 128, 7th day
[14] = mice serum dilution factor 128, 11th day
[15] = mice serum dilution factor 256, 7th day
[16] = mice serum dilution factor 256, 11th day
[17] = mice serum dilution factor 512, 7th day
[18] = mice serum dilution factor 512, 11th day
[19] = mice serum dilution factor 1024, 7th day
[20] = mice serum dilution factor 1024, 11th day
[21] = mice serum dilution factor 2048, 7th day
[22] = mice serum dilution factor 2048, 11th day
[23] = mice serum dilution factor 4096, 7th day
[24] = mice serum dilution factor 4096, 11th day
[25] = P4 solution (1 mg/ml) at 10% (v/v), 15 or 30 min

Q: How did the “growth of fibroblasts (fluorometric metabolic indicator)” value [1] turn out when “LFVESSVKRRPMKTVSQDTNIPIYAQIF [P4, non-branched synthetic peptide, PsaA amino acid residues 251 to 278 with DD changed to KR]” was run?
A: Its value is “enhancement in the growth”.

Q: What about the “inhibition of adherence detected in sera from immunized mice” value (P4 beads [2]) of the same molecule?
A: Its value is “Up to 45%”.

Q: What about the “Anti P4 activity (% IA of P4 beads)” value (P4 beads [3]; [5]) of the same molecule?
A: Its value is 81%.

Q: And the “Anti P4 activity (% IA of P4 beads)” value (P4 beads [3]; [6])?
A: The value was 95%.

Q: And the “Anti P4 activity (% IA of P4 beads)” value (P4 beads [3]; [7])?
A: Its value is 40%.

Q: And the “Anti P4 activity (% IA of P4 beads)” value (P4 beads [3]; [8])?
A: Its value is 44%.

Q: And the “Anti P4 activity (% IA of P4 beads)” value (P4 beads [3]; [9])?
A: Its value is 31%.

Q: What about the “Anti P4 activity (% IA of P4 beads)” value (P4 beads [3]; [10]) of the same molecule?
A: Its value is 45%.

Q: And the “Anti P4 activity (% IA of P4 beads)” value (P4 beads [3]; [11])?
A: Its value is 0%.

Q: And the “Anti P4 activity (% IA of P4 beads)” value (P4 beads [3]; [12])?
A: The value was 4%.

Q: And the “Anti P4 activity (% IA of P4 beads)” value (P4 beads [3]; [13])?
A: Its value is 0%.

Q: What about the “Anti P4 activity (% IA of P4 beads)” value (P4 beads [3]; [14]) of the same molecule?
A: The value was 0%.

Q: What about the “Anti P4 activity (% IA of P4 beads)” value (P4 beads [3]; [15]) of the same molecule?
A: The value was 0%.

Q: What about the “Anti P4 activity (% IA of P4 beads)” value (P4 beads [3]; [16]) of the same molecule?
A: Its value is 0%.

Q: What about the “Anti P4 activity (% IA of P4 beads)” value (P4 beads [3]; [17]) of the same molecule?
A: Its value is 0%.

Q: What about the “Anti P4 activity (% IA of P4 beads)” value (P4 beads [3]; [18]) of the same molecule?
A: The value was 0%.

Q: What about the “Anti P4 activity (% IA of P4 beads)” value (P4 beads [3]; [19]) of the same molecule?
A: Its value is 0%.

Q: What about the “Anti P4 activity (% IA of P4 beads)” value (P4 beads [3]; [20]) of the same molecule?
A: Its value is 0%.

Q: And the “Anti P4 activity (% IA of P4 beads)” value (P4 beads [3]; [21])?
A: Its value is 0%.

Q: What about the “Anti P4 activity (% IA of P4 beads)” value (P4 beads [3]; [22]) of the same molecule?
A: The value was 0%.

Q: What about the “Anti P4 activity (% IA of P4 beads)” value (P4 beads [3]; [23]) of the same molecule?
A: Its value is 0%.

Q: What about the “Anti P4 activity (% IA of P4 beads)” value (P4 beads [3]; [24]) of the same molecule?
A: Its value is 0%.

Q: And the “bacterial adherence to P4 treated NP cells” value ([4]; Detroit 562 NP cells exposed to P4 solution)?
A: The value was “enhancement in bacterial adherence”.

Q: What about the EGF release/production [4, 25] of the same molecule?
A: Its EGF release/production is “brings down EGF production; also recorded: down regulated”.

Q: What about the FGFbasic release/production [4, 25] of the same molecule?
A: Its FGFbasic release/production is “up regulated”.

Q: And the IL8 release/production [4, 25]?
A: Its IL8 release/production is “down regulated”.

Q: What about the “cell morphology by TEM and light photomicrographs” value [4, 25] of the same molecule?
A: The value was “phagocytic activation”.

B1: rPsaA: purified recombinant pneumococcal surface adhesin A, non-lipidated, donated by Aventis-Pasteur (protein)
chain: CASGKKDTTSGQKLKVVATNSIIADITKNIAGDKIDLHSIVPIGQDPHEYEPLPEDVKKTSEADLIFYNGINLETGGNAWFTKLVENAKKTENKDYFAVSDGVDVIYLEGQNEKGKEDPHAWLNLENGIIFAKNIAKQLSAKDPNNKEFYEKNLKEYTDKLDKLDKESKDKFNKIPAEKKLIVTSEGAFKYFSKAYGVPSAYIWEINTEEEGTPEQIKTLVEKLRQTKVPSLFVESSVDDRPMKTVSQDTNIPIYAQIFTDSIAEQGKEGDSYYSMMKYNLDKIAEGLAK
Q: Which results are given for B1?
A: Anti PsaA activity (% IA of PsaA beads) (PsaA beads; [5]): 84%; Anti PsaA activity (% IA of PsaA beads) (PsaA beads; [6]): 79%; Anti PsaA activity (% IA of PsaA beads) (PsaA beads; [7]): 47%; Anti PsaA activity (% IA of PsaA beads) (PsaA beads; [8]): 37%; Anti PsaA activity (% IA of PsaA beads) (PsaA beads; [9]): 42%; Anti PsaA activity (% IA of PsaA beads) (PsaA beads; [10]): 34%; Anti PsaA activity (% IA of PsaA beads) (PsaA beads; [11]): 0%; Anti PsaA activity (% IA of PsaA beads) (PsaA beads; [12]): 11%; Anti PsaA activity (% IA of PsaA beads) (PsaA beads; [13]): 0%; Anti PsaA activity (% IA of PsaA beads) (PsaA beads; [14]): 1%; Anti PsaA activity (% IA of PsaA beads) (PsaA beads; [15]): 0%; Anti PsaA activity (% IA of PsaA beads) (PsaA beads; [16]): 0%; Anti PsaA activity (% IA of PsaA beads) (PsaA beads; [17]): 0%; Anti PsaA activity (% IA of PsaA beads) (PsaA beads; [18]): 0%; Anti PsaA activity (% IA of PsaA beads) (PsaA beads; [19]): 0%; Anti PsaA activity (% IA of PsaA beads) (PsaA beads; [20]): 0%; Anti PsaA activity (% IA of PsaA beads) (PsaA beads; [21]): 0%; Anti PsaA activity (% IA of PsaA beads) (PsaA beads; [22]): 4%; Anti PsaA activity (% IA of PsaA beads) (PsaA beads; [23]): 0%; Anti PsaA activity (% IA of PsaA beads) (PsaA beads; [24]): 18%

Reference: patent US7919104B2, “Functional epitopes of Streptococcus pneumoniae PsaA antigen and uses thereof” (priority 2005, dated 2011)
